Source: paper PMC3563642, “MERTK Interactions with SH2-Domain Proteins in the Retinal Pigment Epithelium” (PLoS ONE, 2013)

T1: 6xHis-rMERTK(571–999), full-length human MERTK cytoplasmic domain (human, UniProt Q12866 571-999, autophosphorylated on tyrosine (incubated with ATP/MgCl2); sites Y749, Y753, Y754 were mapped on rMERTK571–864, not on this construct)
T1 construct: Expressed from the pET28a-LIC vector; also called MERTK intracellular domain; source: E. coli BL21 DE3 Gold, purified (Ni2+-NTA, Sephacryl S-200 HR), autophosphorylated with 10 mM ATP, 10 mM MgCl2
T1 sequence (looked up): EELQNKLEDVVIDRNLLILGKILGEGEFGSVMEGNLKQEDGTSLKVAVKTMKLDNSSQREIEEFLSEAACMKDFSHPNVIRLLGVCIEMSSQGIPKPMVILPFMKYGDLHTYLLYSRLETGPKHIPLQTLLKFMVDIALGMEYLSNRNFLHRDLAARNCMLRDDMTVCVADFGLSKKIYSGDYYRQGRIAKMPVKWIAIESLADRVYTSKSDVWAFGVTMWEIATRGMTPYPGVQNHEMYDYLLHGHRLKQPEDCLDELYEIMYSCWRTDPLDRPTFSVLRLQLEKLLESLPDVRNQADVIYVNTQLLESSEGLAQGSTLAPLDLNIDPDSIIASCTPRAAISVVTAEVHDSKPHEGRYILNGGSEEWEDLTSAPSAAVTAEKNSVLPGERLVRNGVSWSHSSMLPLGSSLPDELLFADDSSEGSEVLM


Target: T1, 6xHis-rMERTK(571–999), full-length …
Experiment: pull-down; Ni2+-NTA pull down: GST-rSH2-domain protein (10 µg) incubated with autophosphorylated 6xHis-rMERTK571–999 (10 µg) in 50 mM NaH2PO4, 300 mM NaCl, 10 mM imidazole, 0.1 µM PMSF, 1 h at 4°C, then Ni2+-NTA resin 0.5 h; washes with 50 mM imidazole, elution with 500 mM imidazole; Coomassie-stained SDS gels; negative control omits rMERTK
Conditions: both partners purified

Row | binding result | Binder
1 | binds | VAV3 GST-SH2 domain fusion protein (domain or fragment, human, UniProt Q9UKW4 672-766, looked up, pGEX2T construct from a library of SH2 domains; also called rSH2-domain fusion protein corresponding to VAV3; source: E. coli BL21 DE3 Gold, purified (glutathione-agarose, Sephacryl S-200 HR)) WYAGAMERLQAETELINRVNSTYLVRHRTKESGEYAISIKYNNEAKHIKILTRDGFFHIAENRKFKSLMELVEYYKHHSLKEGFRTLDTTLQFPY
2 | binds | VAV1 GST-SH2 domain fusion protein (domain or fragment, human, UniProt P15498 671-765, looked up, pGEX2T construct from a library of SH2 domains; also called rSH2-domain fusion protein corresponding to VAV1; source: E. coli BL21 DE3 Gold, purified (glutathione-agarose, Sephacryl S-200 HR)) WYAGPMERAGAESILANRSDGTFLVRQRVKDAAEFAISIKYNVEVKHIKIMTAEGLYRITEKKAFRGLTELVEFYQQNSLKDCFKSLDTTLQFPF
3 | binds | HCK GST-SH2 domain fusion protein (domain or fragment, human, UniProt P08631 144-241, looked up, pGEX2T construct from a library of SH2 domains; also called rSH2-domain fusion protein corresponding to HCK; source: E. coli BL21 DE3 Gold, purified (glutathione-agarose, Sephacryl S-200 HR)) WFFKGISRKDAERQLLAPGNMLGSFMIRDSETTKGSYSLSVRDYDPRQGDTVKHYKIRTLDNGGFYISPRSTFSTLQELVDHYKKGNDGLCQKLSVPC
